Several values for one entry are separate records, joined by “and”; a condition that tells them apart may be missing. Identical values can stand only once. Like-named read-outs stand apart in the source and are kept apart here.

Test [1] has as its target Human SARS-CoV-2_Wuhan S (SmT1) (SARS-CoV-2 (Wuhan)) (UniProt P0DTC2). Put plainly: flow cytometry SVNA, VHH vs biotin-S binding to Vero E6 ACE2. On the technique in general: A flow cytometer gives signals particle by particle.
The target in test [2] is SARS-CoV-2 spike trimer S (Wuhan, SmT1) (SARS-CoV-2 Wuhan). Put plainly: SPR, antigen on chip. (In SPR one partner is held on a chip, and binding of the other changes the refractive index at the surface.)
The target of test [3] is SARS-CoV-2 S1-RBD fused to human Fc (S1-RBD-Fc) (SARS-CoV-2 Wuhan; human). Put plainly: SPR, antigen on chip.
For test [4], the target named is SARS-CoV-2 S1 (aa16-685) (Wuhan) (SARS-CoV-2 Wuhan) (UniProt P0DTC2). Description: SPR, antigen on chip.
The target of test [5] is SARS-CoV-2 spike trimer S (Wuhan, SmT1) (SARS-CoV-2 Wuhan). Put plainly: SPR, antigen on chip. This is another data set of the same source.
Test [6] addresses SARS-CoV-2 S1-RBD fused to human Fc (S1-RBD-Fc) (SARS-CoV-2 Wuhan; human). Description: SPR, antigen on chip. This is another data set of the same source.
Test [7] has as its target SARS-CoV-2 S1 (aa16-685) (Wuhan) (SARS-CoV-2 Wuhan) (UniProt P0DTC2). Description: SPR, antigen on chip. The source holds these as a separate data set.
For test [8], the target named is Human SARS-CoV-2_Wuhan S (SmT1) (SARS-CoV-2 (Wuhan)) (UniProt P0DTC2).
Test [9] addresses SARS-CoV spike (S) (SARS-CoV) (UniProt P59594). Put plainly: SPR, VHH over immobilised S.
Test [10] deals with Human SARS-CoV-2_Wuhan S (SmT1) (SARS-CoV-2 (Wuhan)) (UniProt P0DTC2). Put plainly: SPR, VHH over immobilised S.
The target is the same in test [11]. Description: tandem SPR, immobilized S, orientation 1: VHH alone.
The target in test [12] is SARS-CoV-2 spike protein S on live virus, Wuhan (strain SARS-CoV-2/Canada/VIDO-01/2020) (SARS-CoV-2 (Wuhan)) (UniProt P0DTC2). Description: cell-based or functional assay.
The target of test [13] is Human SARS-CoV S (SARS-CoV) (UniProt P59594). Description: flow cytometry SVNA: VHH-Fc inhibits S binding to ACE2 on Vero E6 cells.
Test [14] concerns the target Human SARS-CoV-2_Wuhan S (SmT1) (SARS-CoV-2 (Wuhan)) (UniProt P0DTC2). Described as above.
For test [15] the target is unchanged. Put plainly: flow cytometry SVNA, VHH-Fc vs biotin-S binding to Vero E6 ACE2.
In test [16] the target is SARS-CoV-2 S on CHO-S cells (SARS-CoV-2) (UniProt P0DTC2). Description: flow cytometry, CHO-S cells.

Turning to VHH-72 VHH, in test [1], the IC50 (in general, the point on the concentration scale where inhibition reaches its midpoint) was found to be 59 nM. In addition, the IC99 (as a rule, the concentration at which the effect reaches the 99% level) in [1] came to 9.41 µM. The same substance yielded an Imax % in test [1] of 43%. Also, the off-rate constant (koff) (in general, the first-order rate constant of dissociation) in test [2] stood at 0.15 s⁻¹; in test [3], 0.126 s⁻¹; in test [4], 0.161 s⁻¹; in [5], 0.156 s⁻¹; in [6], 0.134 s⁻¹; in test [7] it was 0.146 s⁻¹. Further, the koff stood at 0.00656 s⁻¹ in test [9] and 0.106 s⁻¹ in test [10]. For the same substance, the kon (commonly a measure of how fast the partners come together) turned out to be 1.06e+06 M⁻¹ s⁻¹ in test [2]; 682000 M⁻¹ s⁻¹ in test [3]; 830000 M⁻¹ s⁻¹ in test [4]; 1.1e+06 M⁻¹ s⁻¹ in [5]; 667000 M⁻¹ s⁻¹ in [6]; 940000 M⁻¹ s⁻¹ in test [7]. For the same substance, the figures for the association rate constant (kon) in [9] and in [10] were 1.01e+06 M⁻¹ s⁻¹ and 1.23e+06 M⁻¹ s⁻¹, respectively. For the same substance, the Kd – broadly, the concentration at which binding is half-saturated – in [3] worked out at 185 nM; in test [4], 194 nM; in test [5], 142 nM; in test [6], 200 nM; in [7], 156 nM; in test [9] it was 6.52 nM. Further, the Kd in [10] stood at 86.2 nM. Besides, the End 2nd inj (RU) in [8] is 37.8 RU and 51.2 RU. In [11], this substance registered an End 1st inj (RU) of 25.8 RU. The substance further registered an MN100 in test [12] of 156 nM.

In the case of VHH-72 VHH-Fc (Fc fusion), the IC50 in test [13] came out at 7.8 nM. The IC50 in test [14] amounted to 5.6 nM. Moreover, in test [15], the half-maximal inhibitory concentration (IC50) amounted to 7.2 nM, the IC99 amounted to 238 nM and the Imax % worked out at 57%. In addition, in test [16], the Bmax came to 8030 and the EC50 (usually the concentration at which the effect is half-maximal) was determined as 0.2 nM. Also, in test [12], the LVNA IC50 was 8.46 nM and the MN100 was 1.25 nM.
